Source: US20040259816A1

Target: PKC δ (rat), P09215
Test: cell-based or functional assay

PKC δ (rat), P09215, sequence (P09215 whole entry, stated change not applied): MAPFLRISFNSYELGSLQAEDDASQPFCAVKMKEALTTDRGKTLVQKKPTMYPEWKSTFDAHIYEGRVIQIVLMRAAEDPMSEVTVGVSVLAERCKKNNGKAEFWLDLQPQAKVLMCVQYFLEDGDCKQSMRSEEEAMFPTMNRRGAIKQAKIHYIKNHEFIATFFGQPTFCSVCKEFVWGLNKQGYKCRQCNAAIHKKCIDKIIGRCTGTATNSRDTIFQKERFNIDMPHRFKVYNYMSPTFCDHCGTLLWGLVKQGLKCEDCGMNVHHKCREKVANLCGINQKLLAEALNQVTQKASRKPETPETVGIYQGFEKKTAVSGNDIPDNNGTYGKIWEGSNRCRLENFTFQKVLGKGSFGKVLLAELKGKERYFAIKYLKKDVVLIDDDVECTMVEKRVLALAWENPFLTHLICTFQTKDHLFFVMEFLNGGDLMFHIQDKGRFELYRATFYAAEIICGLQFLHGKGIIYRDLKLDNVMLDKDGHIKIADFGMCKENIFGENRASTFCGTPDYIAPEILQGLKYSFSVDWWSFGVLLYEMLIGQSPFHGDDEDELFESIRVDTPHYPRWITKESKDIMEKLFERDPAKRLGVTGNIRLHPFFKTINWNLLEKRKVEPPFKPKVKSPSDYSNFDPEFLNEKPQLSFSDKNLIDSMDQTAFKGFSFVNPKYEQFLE

- inhibition of CCK-8 induced NF-κB activation (EMSA band intensity, rat pancreatic acini, 10 µM peptide): 76%
- inhibition of TNF-α induced NF-κB activation (EMSA band intensity, rat pancreatic acini, 10 µM peptide): 57%
Binder: SFNSYELGSLRQIKIWFQNRRMKWKK [PKC δ translocation inhibitor δV1-1 conjugated to Drosophila antennapedia peptide]
